Data taken from the supplement of paper PMC9732359.
± gives the uncertainty stated by the source.

Test: protein stability index of a GFP-peptide fusion (yeast GPS) (PSI 1-4); higher = more stable; sorted into four equal gates, so the index is relative within each strain
Details: doa10∆
How it was run: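 Each library plasmid carries Cherry plus GFP with a tiled 17-residue yeast protein peptide fused downstream, and the pooled library was carried in yeast. Mid-log cultures in leucine-free medium were sorted into four equal gates by GFP/Cherry ratio. Reads from Illumina sequencing of PCR-amplified plasmids from each gate were assigned to strains by barcodes. Per peptide, the protein stability index was computed as the summed products of gate read frequency and gate number.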

Compared with QIVQVLKQPPFQITLSS [SSN8], QKESDAKNETNSESDSK [ITC1] is higher in protein stability index: 2.12 ± 0.062 for the first, 2.94 ± 0.044 for the second.

Going from QKGTIGITYRREDMPFT [RPB2] to QKIVVVRAEELNISGEF [RPL16A], the protein stability index rises from 3.01 ± 0.1 to 3.64 ± 0.2.

Compared with QKKVPDKLLDPTTVSYI [SCL1], QKLMQLVVLTDVVERLH [RGR1] is lower in protein stability index: 2.9 ± 0.05 for the first, 2.29 ± 0.072 for the second.

Going from QKSGRPVKSIRARLKGK [RPO21] to QKSINHPPDFKRMLLSL [SNF2], the protein stability index falls from 2.17 ± 0.12 to 1.66 ± 0.04.

First: QKSTELLIRKLPFQRLV [HHT1]
Second: QLAIRNDDELNKLLGNV [HTA1]
The protein stability index of the first is lower: 1.26 ± 0.14 for the first, 3.31 ± 0.14 for the second.

First: QLFHNLISIHSRENNSE [YJL039C/NUP192]
Second: QLGYGKFLILNENPINK [NUT1]
The protein stability index of the first is lower: 2.6 ± 0.079 for the first, 2.92 ± 0.12 for the second.

Going from QLLDTSNQRFKDLQWLE [SIN4] to QLLGDVMTYKGEVLGIT [RPO31], the protein stability index rises from 3.02 ± 0.066 to 3.28 ± 0.11.

QLLKEDSEKRNKYAAML [RRP45] and QLLLLSDERAKLELINR [LRP1] are within error of each other in protein stability index: 3.13 ± 0.11 for the first, 2.93 ± 0.092 for the second.

Going from QLLQRIPNIPPNINTWQ [GAL11] to QLPANMVHLYSIVEECD [RPC17], the protein stability index falls from 2.55 ± 0.048 to 1.99 ± 0.044.

First: QLPKQLWRNFCRKLSFS [ITC1]
Second: QLTVCGAIIGWTRGTGL [FAS2]
The protein stability index of the first is higher: 2.67 ± 0.059 for the first, 1.26 ± 0.079 for the second.

First: QLYESGNPVNDANLLGA [COR1]
Second: QLYKARMSIKLLRLASK [POP1]
The protein stability index of the first is higher: 2.53 ± 0.059 for the first, 1.54 ± 0.064 for the second.

Compared with QMAKDVTTFLNWCAEPE [CYT1], QMIDTSILPTRDDLFVR [NUT1] is lower in protein stability index: 3.4 ± 0.068 for the first, 2.86 ± 0.06 for the second.

QNDQWSIQMEFMLRKQD [SSN2] and QNSDASTLEPTLRKELE [YIL149C/MLP2] are within error of each other in protein stability index: 2.53 ± 0.071 for the first, 2.59 ± 0.09 for the second.

First: QNTIDDTEMKMKSLLTE [YIL149C/MLP2]
Second: QNYLKTYNEDIPVEILV [PRE9]
The protein stability index of the first is higher: 3.25 ± 0.066 for the first, 2.79 ± 0.066 for the second.

Compared with QPEDLEPAEANEENDLD [RPB2], QPIFVAHTAGRYANKRF [RPS5] is lower in protein stability index: 3.35 ± 0.17 for the first, 1.55 ± 0.076 for the second.

Going from QPQALQKSGRPVKSIRA [RPO21] to QPSSSRYNGGNDNIGAN [SMB1], the protein stability index rises from 2.62 ± 0.065 to 3.2 ± 0.091.

Going from QPVLEKPLKKGSADIGA [SIR4] to QQQQQQHIYPSSTPGVA [GAL11], the protein stability index falls from 3.16 ± 0.078 to 2.728 ± 0.022.

QQQQQQQQQQQQQQQQQ [GAL11] and QQQQQQQVPPLPDELTL [DLS1] are within error of each other in protein stability index: 2.57 ± 0.032 for the first, 2.63 ± 0.035 for the second.

Going from QQQSADHDDSTDDADDH [NSL1] to QQQTSTFNSKPVRTIVP [SIR4], the protein stability index falls from 2.91 ± 0.059 to 2.38 ± 0.032.

Going from QQQVLNKLRQQAIAKNN [SNF5] to QQRKQKKNRDKKIFGTG [RPS24A], the protein stability index rises from 1.13 ± 0.066 to 3.17 ± 0.093.

Compared with QQTAQTQLEQQRQLLVQ [SNF5], QQTEKLNPQVADINKNF [RPN2] is lower in protein stability index: 3.12 ± 0.12 for the first, 1.91 ± 0.066 for the second.

Going from QRDAVTLFCCLLRSRLA [RPO21] to QRKKQIAFPQRKYAIKA [RPL35A], the protein stability index falls from 1.78 ± 0.045 to 1.25 ± 0.059.

Going from QRKNGVTNSPLFQTIEK [ECM29] to QRSKKIQPTAKVVYIQR [DIS3], the protein stability index falls from 3.29 ± 0.16 to 2.23 ± 0.27.

Compared with QRVFDETEQEYSPSNEI [YDL116W/NUP84], QSDFCLSWCPSRFSPEK [YGL100W/SEH1] is lower in protein stability index: 3.28 ± 0.067 for the first, 3.09 ± 0.11 for the second.

First: QSGSNSGNNSKKRKNKS [ROX3]
Second: QSISNENDVKPISIEAP [SWI3]
The protein stability index of the first is higher: 2.96 ± 0.17 for the first, 2.55 ± 0.042 for the second.

Compared with QSISQNSSSSTPNTNSN [SWI1], QSKEILKGLLQELKADS [SRP72] is lower in protein stability index: 2.73 ± 0.055 for the first, 2.36 ± 0.17 for the second.

Going from QSLANIQYVTYLLTQQQ [SOH1] to QSLELMIYDDAHEISQG [BRR2], the protein stability index rises from 2.23 ± 0.048 to 2.73 ± 0.04.

Compared with QSQPIANQSATSTPPPP [SNF5], QSRRYNLRRHSDIVLDK [SIN4] is higher in protein stability index: 2.82 ± 0.044 for the first, 3.07 ± 0.05 for the second.

Compared with QTFEAKLHFKDTKPFLN [NUT1], QTGTKPVLKKKAAFLGS [COR1] is higher in protein stability index: 2.4 ± 0.074 for the first, 2.99 ± 0.064 for the second.

Going from QTHPDTGISQKSMSILN [HTB1] to QTQEFFLSSFDDVLQTI [YJL039C/NUP192], the protein stability index falls from 3.04 ± 0.056 to 2.65 ± 0.046.

First: QVIFEIFEISLQRKDYT [YML103C/NUP188]
Second: QVKVKGQLGEMAKCLDN [YCS4]
The protein stability index of the first is lower: 2 ± 0.053 for the first, 3.25 ± 0.11 for the second.

First: QVNGNIRKVSNDRESVL [SMC3]
Second: QVSKKLSSIEASLKIKN [SMC3]
The protein stability index of the first is higher: 3.12 ± 0.15 for the first, 1.67 ± 0.069 for the second.

Going from QVVTDYNILGNLGIPKI [SSN2] to QWNKLTSFDIKREGRNE [POP6], the protein stability index rises from 2.51 ± 0.069 to 3.31 ± 0.3.

QYDFKAVLEENDENDDE [RPN14] and QYGYSGSSAGMNGRSLT [SNF6] are within error of each other in protein stability index: 3.04 ± 0.11 for the first, 3.14 ± 0.07 for the second.

Compared with QYNIPPEREVLVRELYQ [RRP6], RAEAKAQGVAVQLKRQP [RPL21A] is higher in protein stability index: 2.52 ± 0.061 for the first, 2.75 ± 0.096 for the second.

First: RAGKYELVKSYSWLLFE [YJR042W/NUP85]
Second: RAHRIGQKNEVRILRLI [SNF2]
The protein stability index of the first is lower: 1.62 ± 0.11 for the first, 2.26 ± 0.048 for the second.

First: RAKPVTNSSILLGKILP [RRP6]
Second: RALYTPFLLMELHKKLV [YDL116W/NUP84]
The protein stability index of the first is higher: 2.2 ± 0.074 for the first, 1.82 ± 0.094 for the second.

Going from RAPKVIHGQDFQFFPKE [ISW2] to RARVKAFPKDDRSKPVA [RPL3], the protein stability index rises from 2.56 ± 0.068 to 2.85 ± 0.1.
